This is an account of results in US20240058447A1 (INSTIL BIO UK, published 2024).

The target of experiment [1] is CD3 of the TCR/CD3 complex on T cells (human) (UniProt P07766). The experiment in a line: cell-based or functional assay.
For experiment [2], the target named is membrane-bound FRα on target cells (UniProt P15328). The experiment can be described thus: cell-based or functional assay.
Experiment [3] deals with T1, human histidine-tagged FRα (human, UniProt P15328 25-234).
T1 construct: also called folate receptor α; FOLR1; not shown: histidine tag
T1 sequence (P15328 25-234 limits assumed): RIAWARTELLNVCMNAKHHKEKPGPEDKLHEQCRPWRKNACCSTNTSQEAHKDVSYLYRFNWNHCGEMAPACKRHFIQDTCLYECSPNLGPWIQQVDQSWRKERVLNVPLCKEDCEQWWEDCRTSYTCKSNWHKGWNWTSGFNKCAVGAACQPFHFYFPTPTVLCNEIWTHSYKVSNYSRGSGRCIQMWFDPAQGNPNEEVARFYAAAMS
The experiment can be described thus: surface plasmon resonance (printed 'Surface plasma resonance'); orientation not stated; FIG. 54 names human histidine-tagged FRα.

Chain of membrane-bound FRα on target cells (P15328 25-234 limits assumed): as above
Chain of CD3 of the TCR/CD3 complex on T cells (human) (P07766 23-207, one chain of several): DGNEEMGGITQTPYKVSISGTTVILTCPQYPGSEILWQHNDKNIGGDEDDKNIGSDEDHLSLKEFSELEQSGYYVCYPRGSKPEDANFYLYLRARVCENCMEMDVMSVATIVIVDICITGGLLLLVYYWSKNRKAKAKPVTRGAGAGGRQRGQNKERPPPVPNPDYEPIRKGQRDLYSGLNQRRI

Regarding “membrane-anchored OKT3 on target cells (scFv)”, in experiment [1], the cytotoxicity against Ba/F3.OKT3 at E:T 1:5 after 5 days, CoStAR transduced T cells was determined as 82% and the cytotoxicity against Ba/F3.OKT3 at E:T 1:5 after 5 days, non-transduced T cells was determined as 74%.
In experiment [2], “anti-FRα CoStAR (MOV19 scFv - CD28 - CD40 costimulatory antigen receptor) on T cells or TILs” gave an IFNγ production of lung TIL against Ba/F3.OKT3.FRα, CoStAR-Td versus non-Td of 4 fold; an IFNγ production of lung TIL against autologous tumor digest, E:T 1:1, CoStAR-Td versus non-Td of 6.4 fold; an IFNγ production of ovarian TIL against Ba/F3.OKT3.FRα, CoStAR-Td versus non-Td of 4.2 fold; an IFNγ production of ovarian TIL against autologous tumor digest, E:T 1:1, CoStAR-Td versus non-Td of 4.3 fold. In experiment [2], this molecule gave an IFNγ production of renal TIL against Ba/F3.OKT3.FRα, CoStAR-Td versus non-Td of 3.1 fold; an IFNγ production of renal TIL against autologous tumor digest, E:T 1:1, CoStAR-Td versus non-Td of 2.4 fold; an IL-2 production of lung TIL against Ba/F3.OKT3.FRα, CoStAR-Td versus non-Td of 18.3 fold; an IL-2 production of ovarian TIL against Ba/F3.OKT3.FRα, CoStAR-Td versus non-Td of 19.9 fold. In experiment [2], the IL-2 production of renal TIL against Ba/F3.OKT3.FRα, CoStAR-Td versus non-Td was 15 fold; the fold expansion after a single stimulation with Ba/F3.OKT3.FRα, no exogenous IL-2, day 7 came to 6.7 fold; the fold expansion after repeated stimulation with Ba/F3.OKT3.FRα (days 0, 7, 14, 21), no exogenous IL-2, day 35 was 829 fold; the fold expansion of T cells cocultured with Ba/F3.OKT3.FRα, E:T 8:1, 200 IU/mL IL-2, day 35 came to 198 fold. For the same molecule, the xCELLigence cytotoxicity against H508.Luc.Puro.FRα, AUC of normalized cell index over 48 h, E:T 10:1, donor 37636 TCR.CoStAR-Td T cells in experiment [2] is 91.2 AUC.

B1: MOV19 monoclonal antibody (antibody, V domains shown)
VH: QVQLQQSGAELVKPGASVKISCKASGYSFTGYFMNWVKQSHGKSLEWIGRIHPYDGDTFYNQNFKDKATLTVDKSSNTAHMELLSLTSEDFAVYYCTRYDGSRAMDYWGQGTTVTVSS
VL: DIELTQSPASLAVSLGQRAIISCKASQSVSFAGTSLMHWYHQKPGQQPKLLIYRASNLEAGVPTRFSGSGSKTDFTLNIHPVEEEDAATYYCQQSREYPYTFGGGTKLEIK
notes: also called MOV19 antibody; MOV19 anti-FRα antibody
In the case of B1, the dissociation constant Kd in experiment [3] is ~0.46 nM.

For orientation: Kd means the constant that tells how readily two partners part at equilibrium.
